# Measured values: publication PMC11643744, “New Conjugates of Vancomycin with Cell-Penetrating Peptides—Synthesis, Antimicrobial Activity, Cytotoxicity, and BBB Permeability Studies” (Molecules, 2024)
# Peptide text beside a SMILES is read from it. * marks the point of attachment. Propioloyl = C#CC(=O)*
# Experiments:
# [1] = test system: normal human fibroblasts, BJ line (CRL-2522); assay: Neutral red cytotoxicity assay
# Method: Normal human fibroblasts, BJ line (CRL-2522™), Eagle’s Minimum Essential Medium (EMEM), and fetal bovine serum (FBS) were obtained from ATCC (Manassas, VA, USA). Cells were grown following ATCC guidelines in an EMEM medium supplemented with 10% FBS at 37 °C in a humidified atmosphere of 95% air and 5% CO2 in a HeraCell 150 incubator (Heraeus, Hanau, Germany).
# The assay was performed as per previously published protocols with slight modifications. In brief, BJ cells were plated in 96-well tissue culture plates (Nest Scientific Biotechnology, Wuxi, China) at a density of 6 × 10^3 cells per well and allowed to attach for 24 h in EMEM supplemented with 10% FBS. After the incubation period, the medium was removed, and 10% dimethyl sulfoxide (DMSO)-treated cells (Sigma-Aldrich, St. Louis, MO, USA) were used as a positive control, while nontreated cells served as a negative control.
# The cells were treated with peptides suspended in EMEM medium supplemented with 10% FBS and incubated for 24 h at 37 °C in a humidified atmosphere of 95% air and 5% CO2. After the incubation, the supernatants were discarded and replaced with 100 µL of non-supplemented EMEM containing 0.33% neutral red (Sigma-Aldrich) diluted 1:40. The cells were incubated for an additional 2 h at 37 °C. Following incubation, the neutral red medium was removed, and the cells were washed with 100 µL of phosphate-buffered saline (PBS) per well.
# To extract the dye into the solution, the cells were treated with 150 µL of a solution containing 50% ethanol (Alchem, Torun, Poland), 49% distilled H2O, and 1% acetic acid (Alchem, Torun, Poland) and incubated under shaking at 37 °C for 10 min. Absorbance was measured at 540 nm using a Synergy H1 plate reader (BioTek Instruments, Winooski, VT, USA). The assay was performed in triplicate to ensure reproducibility.
# [2] = in vitro
# Excerpt: This assay utilized a 96-well plate assembly consisting of a filter plate pre-coated with polar brain lipids (donor plate) and a receiver plate (acceptor plate). The phospholipid mixture used to coat the membrane was extracted from porcine polar brain lipids, with the following composition: 12.6% phosphatidylcholine, 33.1% phosphatidylethanolamine, 18.5% phosphatidylserine, 4.1% phosphatidylinositol, 0.8% phosphatidic acid, and 30.9% of other compounds, including cerebrosides, sulfatides, and pigments.
# In each well of the donor filtration plate (Multiscreen Filter Plate, PVDF with a pore size of 0.45 µm), 5 µL of the phospholipid mixture in n-dodecane (20 mg/mL) was carefully applied to form the artificial membrane. After coating, 200 µL of phosphate-buffered saline (PBS at pH 7.4) containing 5% dimethyl sulfoxide (DMSO) as a co-solvent, and the test compound (at a concentration of 20 µM) was added to each well of the donor plate (in triplicate). […] The plate lid was then replaced and the resulting assembled donor–acceptor plates were incubated at room temperature for 20 h. After this time, the donor plate was removed and solutions from each well of both acceptor and donor plates were collected for further analysis. The concentrations of the tested compounds were determined by LC-MS. The analysis was conducted by UHPLC-MS system (Shimadzu Nexera X2 with LCMS-2020 detector) using a ReproSil Pure 120 ODS-3 column (Dr. Maisch GmbH, 100 × 2 mm, 2.4 µm particle size) with several gradients of ACN with 0.1% FA and 0.05% TFA at a flow rate of 0.3 mL/min. The eluted solution was monitored by an ESI-MS detector operated in a selected ion monitoring mode (SIM). […] CE=CD×VD+CA×VA/VD+VA
smiles,measurement,setting,value
"C[S+](C)[O-] [DMSO, dimethyl sulfoxide, reference compound]",cell viability,[1],approximately 21%
"O=C(O)Cc1ccccc1Nc1c(Cl)cccc1Cl [Diclofenac, reference compound]","R, mass retention","[2]; PAMPA, 20 h, 20 µM, pH 7.4",12.0 ± 3.3%
same,"Papp at 20 h, 20 µM","[2]; PAMPA, pH 7.4",3.44 ± 0.1 ×10⁻⁶ cm/s
CC[C@H](C)[C@H](NC(=O)[C@H](CCCCN)NC(=O)[C@H](CCCCN)NC(=O)[C@H](C)NC(=O)[C@H](CC(C)C)NC(=O)[C@H](C)NC(=O)[C@H](C)NC(=O)[C@H](CC(C)C)NC(=O)[C@H](C)NC(=O)[C@H](CCCCN)NC(=O)[C@H](CC(C)C)NC(=O)[C@H](CC(N)=O)NC(=O)[C@@H](NC(=O)[C@H](CCCCN)NC(=O)CNC(=O)[C@H](CC(C)C)NC(=O)[C@H](CC(C)C)NC(=O)[C@H](Cc1ccc(O)cc1)NC(=O)CNC(=O)[C@H](C)NC(=O)c1cn(CCOCCOCCOCCNC(=O)[C@H]2NC(=O)[C@H]3NC(=O)[C@H](NC(=O)[C@@H]4NC(=O)[C@H](CC(N)=O)NC(=O)[C@H](NC(=O)[C@@H](CC(C)C)NC)[C@H](O)c5ccc(c(Cl)c5)Oc5cc4cc(c5O[C@@H]4O[C@H](CO)[C@@H](O)[C@H](O)[C@H]4O[C@H]4C[C@](C)(N)[C@H](O)[C@H](C)O4)Oc4ccc(cc4Cl)[C@H]3O)c3ccc(O)c(c3)-c3c(O)cc(O)cc32)nn1)[C@@H](C)CC)C(=O)N[C@@H](CC(C)C)C(N)=O [compound 2],concentration above which cytotoxicity was shown,[1]; 24 h,above 64 µg/mL
same,"R, mass retention","[2]; 20 h incubation, mean ± SEM",10.0 ± 0.6%
same,"Papp at 20 h, 20 µM","[2]; pig, PAMPA, pH 7.4, Pe, effective permeability coefficient, 20 h incubation, 20 µM, pH 7.4, mean ± SEM",0.187 ×10⁻⁶ cm/s
CN[C@H](CC(C)C)C(=O)N[C@H]1C(=O)N[C@@H](CC(N)=O)C(=O)N[C@H]2C(=O)N[C@H]3C(=O)N[C@H](C(=O)N[C@H](C(=O)NCCOCCOCCOCCn4cc(C(=O)N[C@@H](Cc5ccc(O)cc5)C(=O)NCC(=O)N[C@@H](CCCNC(=N)N)C(=O)N[C@@H](CCCCN)C(=O)N[C@@H](CCCCN)C(=O)N[C@@H](CCCNC(=N)N)C(=O)N[C@@H](CCCNC(=N)N)C(=O)N[C@@H](CCC(N)=O)C(=O)N[C@@H](CCCNC(=N)N)C(=O)N[C@@H](CCCNC(=N)N)C(=O)N[C@@H](CCCNC(=N)N)C(N)=O)nn4)c4cc(O)cc(O)c4-c4cc3ccc4O)[C@H](O)c3ccc(c(Cl)c3)Oc3cc2cc(c3O[C@@H]2O[C@H](CO)[C@@H](O)[C@H](O)[C@H]2O[C@H]2C[C@](C)(N)[C@H](O)[C@H](C)O2)Oc2ccc(cc2Cl)[C@H]1O [compound 5],"R, mass retention","[2]; 20 h incubation, mean ± SEM",8.7 ± 3.8%
CN[C@H](CC(C)C)C(=O)N[C@H]1C(=O)N[C@@H](CC(N)=O)C(=O)N[C@H]2C(=O)N[C@H]3C(=O)N[C@H](C(=O)N[C@H](C(=O)O)c4cc(O)cc(O)c4-c4cc3ccc4O)[C@H](O)c3ccc(c(Cl)c3)Oc3cc2cc(c3O[C@@H]2O[C@H](CO)[C@@H](O)[C@H](O)[C@H]2O[C@H]2C[C@](C)(NC(=O)CCOCCOCCOCCOCCn3cc(C(=O)N[C@@H](Cc4ccc(O)cc4)C(=O)NCC(=O)N[C@@H](CCCNC(=N)N)C(=O)N[C@@H](CCCCN)C(=O)N[C@@H](CCCCN)C(=O)N[C@@H](CCCNC(=N)N)C(=O)N[C@@H](CCCNC(=N)N)C(=O)N[C@@H](CCC(N)=O)C(=O)N[C@@H](CCCNC(=N)N)C(=O)N[C@@H](CCCNC(=N)N)C(=O)N[C@@H](CCCNC(=N)N)C(N)=O)nn3)[C@H](O)[C@H](C)O2)Oc2ccc(cc2Cl)[C@H]1O [compound 6],"R, mass retention","[2]; 20 h incubation, mean ± SEM",77.7 ± 0.3%
CN[C@H](CC(C)C)C(=O)N[C@H]1C(=O)N[C@@H](CC(N)=O)C(=O)N[C@H]2C(=O)N[C@H]3C(=O)N[C@H](C(=O)N[C@H](C(=O)NCCSSCCn4cc(C(=O)N[C@@H](Cc5ccc(O)cc5)C(=O)NCC(=O)N[C@@H](CCCNC(=N)N)C(=O)N[C@@H](CCCCN)C(=O)N[C@@H](CCCCN)C(=O)N[C@@H](CCCNC(=N)N)C(=O)N[C@@H](CCCNC(=N)N)C(=O)N[C@@H](CCC(N)=O)C(=O)N[C@@H](CCCNC(=N)N)C(=O)N[C@@H](CCCNC(=N)N)C(=O)N[C@@H](CCCNC(=N)N)C(N)=O)nn4)c4cc(O)cc(O)c4-c4cc3ccc4O)[C@H](O)c3ccc(c(Cl)c3)Oc3cc2cc(c3O[C@@H]2O[C@H](CO)[C@@H](O)[C@H](O)[C@H]2O[C@H]2C[C@](C)(N)[C@H](O)[C@H](C)O2)Oc2ccc(cc2Cl)[C@H]1O [compound 7],"R, mass retention","[2]; 20 h incubation, mean ± SEM",23.8 ± 4.9%
CN[C@H](CC(C)C)C(=O)N[C@H]1C(=O)N[C@@H](CC(N)=O)C(=O)N[C@H]2C(=O)N[C@H]3C(=O)N[C@H](C(=O)N[C@H](C(=O)O)c4cc(O)cc(O)c4-c4cc3ccc4O)[C@H](O)c3ccc(c(Cl)c3)Oc3cc2cc(c3O[C@@H]2O[C@H](CO)[C@@H](O)[C@H](O)[C@H]2O[C@H]2C[C@](C)(NC(=O)CCC(=O)NCCSSCCn3cc(C(=O)N[C@@H](Cc4ccc(O)cc4)C(=O)NCC(=O)N[C@@H](CCCNC(=N)N)C(=O)N[C@@H](CCCCN)C(=O)N[C@@H](CCCCN)C(=O)N[C@@H](CCCNC(=N)N)C(=O)N[C@@H](CCCNC(=N)N)C(=O)N[C@@H](CCC(N)=O)C(=O)N[C@@H](CCCNC(=N)N)C(=O)N[C@@H](CCCNC(=N)N)C(=O)N[C@@H](CCCNC(=N)N)C(N)=O)nn3)[C@H](O)[C@H](C)O2)Oc2ccc(cc2Cl)[C@H]1O [compound 8],"R, mass retention","[2]; 20 h incubation, mean ± SEM",31.5 ± 1.5%
C#CC(=O)N[C@@H](Cc1ccc(O)cc1)C(=O)N[C@@H](C)C(=O)N[C@@H](CCCNC(=N)N)C(=O)N[C@@H](C)C(=O)N[C@@H](C)C(=O)N[C@@H](C)C(=O)N[C@@H](CCCNC(=N)N)C(=O)N[C@@H](CCC(N)=O)C(=O)N[C@@H](C)C(=O)N[C@@H](CCCNC(=N)N)C(=O)N[C@@H](C)C(N)=O [compound 9] (Propioloyl-YARAAARQARA-NH2),"R, mass retention","[2]; 20 h incubation, mean ± SEM",6.7 ± 1.5%
CN[C@H](CC(C)C)C(=O)N[C@H]1C(=O)N[C@@H](CC(N)=O)C(=O)N[C@H]2C(=O)N[C@H]3C(=O)N[C@H](C(=O)N[C@H](C(=O)NCCOCCOCCOCCn4cc(C(=O)N[C@@H](CCCNC(=N)N)C(=O)N[C@@H](CCCNC(=N)N)C(=O)N[C@@H](CCCNC(=N)N)C(=O)N[C@@H](CCCNC(=N)N)C(=O)N[C@@H](CCCNC(=N)N)C(=O)N[C@@H](CCCNC(=N)N)C(=O)N[C@@H](CCCNC(=N)N)C(=O)N[C@@H](CCCNC(=N)N)C(=O)N[C@@H](CCCNC(=N)N)C(N)=O)nn4)c4cc(O)cc(O)c4-c4cc3ccc4O)[C@H](O)c3ccc(c(Cl)c3)Oc3cc2cc(c3O[C@@H]2O[C@H](CO)[C@@H](O)[C@H](O)[C@H]2O[C@H]2C[C@](C)(N)[C@H](O)[C@H](C)O2)Oc2ccc(cc2Cl)[C@H]1O [compound 15],"R, mass retention","[2]; 20 h incubation, mean ± SEM",2.7 ± 0.9%
CN[C@H](CC(C)C)C(=O)N[C@H]1C(=O)N[C@@H](CC(N)=O)C(=O)N[C@H]2C(=O)N[C@H]3C(=O)N[C@H](C(=O)N[C@H](C(=O)O)c4cc(O)cc(O)c4-c4cc3ccc4O)[C@H](O)c3ccc(c(Cl)c3)Oc3cc2cc(c3O[C@@H]2O[C@H](CO)[C@@H](O)[C@H](O)[C@H]2O[C@H]2C[C@](C)(NC(=O)CCOCCOCCOCCOCCn3cc(C(=O)N[C@@H](CCCNC(=N)N)C(=O)N[C@@H](CCCNC(=N)N)C(=O)N[C@@H](CCCNC(=N)N)C(=O)N[C@@H](CCCNC(=N)N)C(=O)N[C@@H](CCCNC(=N)N)C(=O)N[C@@H](CCCNC(=N)N)C(=O)N[C@@H](CCCNC(=N)N)C(=O)N[C@@H](CCCNC(=N)N)C(=O)N[C@@H](CCCNC(=N)N)C(N)=O)nn3)[C@H](O)[C@H](C)O2)Oc2ccc(cc2Cl)[C@H]1O [compound 16],"R, mass retention","[2]; 20 h incubation, mean ± SEM",37.3 ± 4.8%
